# Data reported in article PMC7884259.
# Target: ATAD2B bromodomain (residues 953–1085) (human) (UniProt Q9ULI0)
# Assay: ITC
# Chain of ATAD2B bromodomain (residues 953–1085) (human) (Q9ULI0 953-1085): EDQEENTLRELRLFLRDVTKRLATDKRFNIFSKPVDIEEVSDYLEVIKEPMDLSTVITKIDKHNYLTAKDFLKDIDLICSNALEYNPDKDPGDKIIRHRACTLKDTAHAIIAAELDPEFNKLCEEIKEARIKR
row,Kd,Substance
1,214 µM,H4K12acK16ac (res 10–20) (peptide)
2,50.5 µM,H4K12ac (res 4–17) (peptide)
